The text below walks through data of the RNAGym collection of RNA variant scans (doi:10.7554/elife.80360).

First the molecules themselves.
B1: Hairpin Ribozyme (parent)
chain: GUCCUCUUUCACGUGCGCGUGAAAGAGAGAAGUGAACCAGAGAAACACACGUUGUGGUAUAUUACCUGGUA

The variants in the series derive from B1. Nature of the series: self-cleavage, relative activity (ratio to wild type); higher = more cleavage; co-transcriptional.
As to U14G A36U, the self-cleavage came to 0.311.

As to U14C G15U, the self-cleavage worked out at 0.926.

Turning to U14C G15A, the self-cleavage came to 0.825.

For U14C G15C, the self-cleavage turned out to be 0.932.

With G13U C50G, the self-cleavage is 0.259.

Consider G13U C50A, for which the self-cleavage was found to be 0.213.

Turning to G13U G40U, the self-cleavage was determined as 0.153.

For G13U G40C, the self-cleavage was determined as 0.122.

For the variant G13A U53C, the self-cleavage is 0.645.

As to U14A G34A, the self-cleavage amounted to 1.31.

With U14A G34C, the self-cleavage was found to be 1.19.

Consider G13A G56A, for which the self-cleavage was 0.188.

Turning to G13A G42U, the self-cleavage was determined as 0.234.

As to G13A G42C, the self-cleavage was found to be 0.302.

Regarding U14A A24G, the self-cleavage was determined as 0.938.

In the case of U14A U70G, the self-cleavage came out at 0.714.

Turning to U14A U70C, the self-cleavage is 1.01.

G13A C50G: the self-cleavage turned out to be 0.316.

Turning to G13U A45C, the self-cleavage was found to be 0.141.

G13A U70A: the self-cleavage amounted to 0.735.

In the case of G13A U70G, the self-cleavage is 0.629.

With C12U U14G, the self-cleavage stood at 0.602.

With C12U U14A, the self-cleavage was 0.73.

Regarding G13C A36C, the self-cleavage came to 0.304.

With G13A C37G, the self-cleavage amounted to 0.174.

As to G13A C37U, the self-cleavage was 0.637.

For the variant U14C C37U, the self-cleavage was found to be 0.376.

Turning to G13C A49U, the self-cleavage was found to be 0.199.

For the variant G13C A49C, the self-cleavage was found to be 0.115.

Consider G13C A49G, for which the self-cleavage was 0.424.

Regarding G13U G56A, the self-cleavage was found to be 0.127.

For G13U G56U, the self-cleavage was 0.135.

Regarding U14A A26G, the self-cleavage worked out at 0.575.

For the variant G13A G32U, the self-cleavage came to 0.205.

Take G13A U58C: the self-cleavage was 0.817.

G13U A26U: the self-cleavage worked out at 0.52.

Turning to G13U A26C, the self-cleavage was determined as 0.416.

In the case of G13C G42C, the self-cleavage was determined as 0.3.

With G13C G42U, the self-cleavage is 0.201.

Regarding G13U A43C, the self-cleavage turned out to be 0.147.

Consider G13U A49U, for which the self-cleavage was found to be 0.169.

With C12U U62A, the self-cleavage was 0.148.

G13A A49C: the self-cleavage came out at 0.102.

Regarding G13U A22G, the self-cleavage amounted to 0.659.

With G13A U55G, the self-cleavage worked out at 0.112.

G13U U60G: the self-cleavage amounted to 0.404.

Consider G13U U60C, for which the self-cleavage worked out at 0.902.

For G13U U60A, the self-cleavage came out at 0.696.

In the case of U14C C46G, the self-cleavage was 0.0498.

Consider U14C C46U, for which the self-cleavage came out at 0.078.

In the case of U14C C46A, the self-cleavage was determined as 0.174.

Consider G13A G17U, for which the self-cleavage was 0.656.

As to G13C U33C, the self-cleavage stood at 0.296.

Turning to U14A A61U, the self-cleavage turned out to be 0.266.

On to U14A A61G, for which the self-cleavage worked out at 0.101.

G13C G32U: the self-cleavage was found to be 0.027.

As to G13C G32A, the self-cleavage amounted to 0.12.

With U14G G15U, the self-cleavage was found to be 0.796.

Consider U14G A30C, for which the self-cleavage amounted to 0.129.

As to C12U U67G, the self-cleavage worked out at 0.286.

Turning to C12U U67A, the self-cleavage was 0.348.

G13A A45C: the self-cleavage came to 0.135.

Take G13A A45U: the self-cleavage came to 0.0732.

For G13U U53G, the self-cleavage stood at 0.716.

G13A G21A: the self-cleavage was found to be 0.594.

For G13A G21C, the self-cleavage turned out to be 0.862.

For the variant G13C A24G, the self-cleavage came to 0.537.

For the variant C12U U33C, the self-cleavage came to 0.187.

As to G13C G17A, the self-cleavage is 0.839.

For the variant G13C G17C, the self-cleavage worked out at 0.368.

Consider G13U A35C, for which the self-cleavage turned out to be 0.876.

Regarding G13U A35G, the self-cleavage is 0.709.

With G13U G34A, the self-cleavage was determined as 1.1.

Turning to G13U G34U, the self-cleavage was 1.12.

Take G13U G34C: the self-cleavage came out at 0.998.

On to G13U C65G, for which the self-cleavage amounted to 0.193.

On to G13U C65U, for which the self-cleavage was 0.301.

In the case of G13A G25C, the self-cleavage stood at 0.36.

Regarding U14G A44C, the self-cleavage turned out to be 0.218.

With U14G A44G, the self-cleavage turned out to be 0.0802.

For the variant U14G C65A, the self-cleavage was 1.05.

Consider G13A G29A, for which the self-cleavage worked out at 0.167.

As for G13A G29C, the self-cleavage was found to be 0.153.

Regarding G13C A31U, the self-cleavage was determined as 0.0909.

As to G13A U33A, the self-cleavage was 0.165.

In the case of G13A U33G, the self-cleavage is 0.136.

Consider G13A U33C, for which the self-cleavage was found to be 0.139.

For the variant G13A G54A, the self-cleavage is 0.443.

For the variant U14A A45C, the self-cleavage is 0.21.

Take U14A A45U: the self-cleavage turned out to be 0.116.

Regarding U14G A47C, the self-cleavage turned out to be 0.218.

For the variant G13C U55G, the self-cleavage worked out at 0.107.

Turning to G13C U55C, the self-cleavage amounted to 0.0845.

Turning to U14G A43C, the self-cleavage turned out to be 0.0921.

In the case of U14C A39G, the self-cleavage is 0.243.

Consider U14C A39C, for which the self-cleavage amounted to 0.475.

For G13C A28G, the self-cleavage came to 0.85.

In the case of G13C A28U, the self-cleavage amounted to 0.252.

For G13C G54U, the self-cleavage worked out at 0.532.

Consider G13U G32U, for which the self-cleavage worked out at 0.157.

In the case of C12U U63C, the self-cleavage is 0.0427.

With U14G G17C, the self-cleavage worked out at 0.415.

In the case of G13U G69A, the self-cleavage stood at 0.312.

As for G13U A59G, the self-cleavage was determined as 0.0932.

On to U14C A59U, for which the self-cleavage came to 0.081.

In the case of U14C A59G, the self-cleavage was found to be 0.0434.

For G13C G68U, the self-cleavage amounted to 0.193.

U14C C65G: the self-cleavage stood at 0.214.

As for U14C C65A, the self-cleavage came out at 0.93.

With G13U A24U, the self-cleavage was 0.595.

As to G13U A24C, the self-cleavage was 0.563.

U14C C18U: the self-cleavage came out at 0.868.

Take U14C C18A: the self-cleavage was determined as 0.933.

For G13C A30C, the self-cleavage amounted to 0.112.

On to G13A A26G, for which the self-cleavage stood at 0.778.

Turning to G13A A26U, the self-cleavage stood at 0.529.

Take G13A A26C: the self-cleavage worked out at 0.556.

Turning to U14C A23G, the self-cleavage amounted to 0.841.

Take G13U G25U: the self-cleavage was determined as 0.527.

As for G13U G25A, the self-cleavage came to 0.559.

As for G13U A28C, the self-cleavage was 0.34.

As to G13C U70G, the self-cleavage was found to be 0.502.

Take U14A G32C: the self-cleavage stood at 0.157.

G13U G19U: the self-cleavage was 0.895.

As for G13C U14C, the self-cleavage was 0.583.

Turning to G13U U14G, the self-cleavage was found to be 0.729.

Turning to G13U U14A, the self-cleavage came out at 0.88.

U14C G27U: the self-cleavage was 0.102.

Take U14G A45C: the self-cleavage was 0.243.

Regarding U14A A44G, the self-cleavage was found to be 0.189.

U14A A44C: the self-cleavage was 0.14.

As to G13U A30U, the self-cleavage is 0.164.

Consider U14A C16A, for which the self-cleavage was 0.849.

In the case of U14A C16U, the self-cleavage was 0.813.

Regarding U14A C16G, the self-cleavage came out at 0.594.

Regarding G13C G25C, the self-cleavage was 0.356.

Consider G13A G34U, for which the self-cleavage is 1.22.

Consider G13A G34A, for which the self-cleavage stood at 1.19.

In the case of G13U G68A, the self-cleavage was 0.207.

For the variant G13C A22C, the self-cleavage was determined as 0.591.

For G13C U53C, the self-cleavage came out at 0.535.

Consider G13C U58G, for which the self-cleavage is 0.398.

With G13C A61C, the self-cleavage came out at 0.155.

Turning to U14C C50G, the self-cleavage is 0.268.

Take G13A C38U: the self-cleavage amounted to 0.396.

In the case of G13C C65U, the self-cleavage amounted to 0.243.

Take G13A C65U: the self-cleavage came to 0.285.

For U14A A31C, the self-cleavage turned out to be 0.391.

For U14A A31G, the self-cleavage is 0.52.

As for G13U C16A, the self-cleavage worked out at 0.558.

For the variant U14C C16U, the self-cleavage was 0.728.

For G13A A36C, the self-cleavage is 0.533.

G13A A36G: the self-cleavage worked out at 0.873.

Regarding G13A A28G, the self-cleavage came to 1.

Consider G13C C37U, for which the self-cleavage came out at 0.508.

G13C C37A: the self-cleavage came out at 0.204.

Regarding G13U U63C, the self-cleavage was found to be 0.181.

Take G13U U63A: the self-cleavage is 0.103.

Turning to G13C A39U, the self-cleavage turned out to be 0.289.

As to U14A A28U, the self-cleavage was 0.574.

As for G13U U52A, the self-cleavage was found to be 0.83.

With G13U U58G, the self-cleavage was 0.645.

Take G13A C66G: the self-cleavage was 0.16.

With U14A U63G, the self-cleavage stood at 0.0901.

With G13A A24C, the self-cleavage worked out at 0.76.

With G13A A24G, the self-cleavage amounted to 0.69.

Take G13U G42U: the self-cleavage was found to be 0.289.
